Measurements from patent publication US20220332795A1.
Residue numbers refer to the chain shown, from its start. Each block holds one binder with its values, some of them ahead of it.

Molecular target: human serum albumin (human) (UniProt P02768)
Assay: solution ELISA screen (luminescence)

Chain of human serum albumin (human) (P02768 25-609 limits assumed): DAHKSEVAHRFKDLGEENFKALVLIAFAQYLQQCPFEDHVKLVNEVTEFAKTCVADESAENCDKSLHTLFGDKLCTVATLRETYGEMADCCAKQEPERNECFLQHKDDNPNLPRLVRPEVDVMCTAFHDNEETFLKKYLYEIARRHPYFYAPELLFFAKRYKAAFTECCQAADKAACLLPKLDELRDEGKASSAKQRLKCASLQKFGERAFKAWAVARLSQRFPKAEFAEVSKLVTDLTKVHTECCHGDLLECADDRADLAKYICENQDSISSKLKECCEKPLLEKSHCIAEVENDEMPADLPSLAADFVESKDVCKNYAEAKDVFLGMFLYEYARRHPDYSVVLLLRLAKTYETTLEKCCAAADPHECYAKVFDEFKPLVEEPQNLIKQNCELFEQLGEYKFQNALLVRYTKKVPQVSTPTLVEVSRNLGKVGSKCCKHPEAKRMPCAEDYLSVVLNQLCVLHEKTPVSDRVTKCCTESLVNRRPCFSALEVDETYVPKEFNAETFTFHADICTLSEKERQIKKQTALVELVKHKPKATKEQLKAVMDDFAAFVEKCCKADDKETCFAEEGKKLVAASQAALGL

B1: SEQ ID NO 231 (designed binder, not shown: small tags and cut ends)
chain: MLPAPKNLVVSRVTEDSARLSWTAPDAAFDSFFIGYLEPQPPGEAIHLYVPGSERSYDLTGLKPGTEYNVTIQGVKGGFPSDPLDAVFTT
- RLU: 20600 RLU

B4: SEQ ID NO 228 (designed binder, not shown: small tags and cut ends)
chain: MLPAPKNLVVSRVTEDSARLSWTAPDAAFDSFYIAYAEPRPDGEAIVLRVPGSERSYDLTGLKPGTEYSVLIHGVKGGLLSSPLAASFTT
- RLU: 29600 RLU

B5: SEQ ID NO 230 (designed binder, not shown: small tags and cut ends)
chain: B4 chain with V47W, R49L, A85V, S87F
- RLU: 32000 RLU

B9: SEQ ID NO 229 (designed binder, not shown: small tags and cut ends)
chain: B4 chain with V47Q, R49L, A85V, S87H
- RLU: 15400 RLU

B11: SEQ ID NO 233 (designed binder, not shown: small tags and cut ends)
chain: B4 chain with V47Q, R49F, A85K, S87Y
- RLU: 22000 RLU

B13: SEQ ID NO 232 (designed binder, not shown: small tags and cut ends)
chain: MLPAPKNLVVSRVTEDSARLSWTAPDAAFDSFFIGYLEPQPPGEAIYLDVPGSERSYDLTGLKPGTEYNVTIQGVKGGFPSTFTT
- RLU: 75400 RLU

Other lines, results leading:

- RLU: 23800 RLU
B2: SEQ ID NO 235 (designed binder, not shown: small tags and cut ends)
chain: B1 chain with H47Q, Y49T, D82L, D85S, V87D

- RLU: 99000 RLU
B3: SEQ ID NO 238 (designed binder, not shown: small tags and cut ends)
chain: MLPAPKNLVVSRVTEDSARLSWTTPDAAFDSFYIAYAEPRPDGEAIRLQVPGSERSYDLTGLKPGTEYSVLIHGVKGGLLSSPLGFTT

- RLU: 15600 RLU
B6: SEQ ID NO 236 (designed binder, not shown: small tags and cut ends)
chain: B4 chain with V47L, R49Q, A85D, S87E

- RLU: 21100 RLU
B7: SEQ ID NO 239 (designed binder, not shown: small tags and cut ends)
chain: B4 chain with V47Q, R49V, A85Y, S87I

- RLU: 20800 RLU
B8: SEQ ID NO 234 (designed binder, not shown: small tags and cut ends)
chain: B4 chain with R49V, A85S, S87I

- RLU: 27700 RLU
B10: SEQ ID NO 237 (designed binder, not shown: small tags and cut ends)
chain: B4 chain with R49A, A85Y

- RLU: 18000 RLU
B12: SEQ ID NO 240 (designed binder, not shown: small tags and cut ends)
chain: B4 chain with V47S, R49S, A85H, S87K
